# Measurements: the supplement of paper PMC12042874
# ± gives the uncertainty stated by the source.
# Assay: amyloid nucleation score (Sup35N fusion, yeast selection) (log enrichment); library NNK1; higher = more nucleation; inactive = no reads after selection
# Procedure, shortened: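 The nucleation score is the DiMSum log enrichment of output over input reads, centred on the mode score of non-aggregating sequences. Only sequences with 100 or more input reads were scored, using Illumina sequencing of input and output plasmid inserts. Psi-negative yeast expressing Sup35N fused to peptides of 20 random codons were induced 24 hours with 100 μM copper sulfate and grown 7 days at 30°C on medium lacking adenine and uracil.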
row,Substance,amyloid nucleation score
1,LDVFICTADHTVRYLHHTAV,1.08 ± 0.66
2,RGDLF,3.04 ± 0.07
3,NVIYFNVLVAPLHIPMLDLG,3.75 ± 0.14
4,TTFVSASSMRRYRCLSLGAC,0.659 ± 0.85
5,MPVALKIAILTFWEKSNLCE,1.27 ± 0.88
6,KTLSLLIL,0.387 ± 0.37
7,PFLAKVLCNVWNI,6.8 ± 0.047
8,ERFLFGSMSTYANGRCVGAY,-1.11 ± 2.4
9,TDLKLWH,0.136 ± 1.2
10,ACDVVIRTWITKDTKGFYRA,0.488 ± 0.29
11,RYFCAIWLGCGERRSRVSKW,1.38 ± 0.34
12,CLRPLEPDVYVTRILRFCDS,-0.304 ± 0.39
13,CPSEYQIAGMIASSYMHLGE,0.872 ± 0.33
14,YSSCFRSGIF,-0.68 ± 0.6
15,GRLTLSRGRCCQGSLNTVYP,0.007 ± 0.75
16,TMLMNEWGMLLNKWEWA,-0.398 ± 1.1
17,ATCLLAFMNFVSILERRSES,1.86 ± 0.21
18,NTHILYVWSVMCGHMN,3.35 ± 0.11
19,GGWGRGECPYSHTKWYVKSG,-0.999 ± 0.94
20,SLVLVYGFWELYLW,0.689 ± 0.84
21,ASAVIWGERAKLRKYLIPTR,0.94 ± 0.7
22,ISGFGVIVWGVVSWVWYGTN,-0.268 ± 0.7
23,RFIIFNHDLGLRD,-0.384 ± 0.51
24,ACWLAKHKEYRLSGHVQEFD,0.035 ± 0.52
25,AYAKLYKLSVLEPGRRVRMQ,1.21 ± 0.57

row,Substance,amyloid nucleation score
1,YNLSGFDNGFSISLSCSDVA,0.886 ± 0.74
2,IVYSLLYVRMSSNSMWVSV,0.958 ± 0.9
3,PCYAVYITAPINV,5.94 ± 0.093
4,RRHAHLWLYLGNLGCWLEEV,-0.139 ± 0.38
5,PVCHLSGFFFLYDSGCSD,4.82 ± 0.069
6,RAMCKNQCSYVMR,0.003 ± 0.37
7,DRWLSM,-0.025 ± 0.51
8,TFTWGRMRSSSVDSCVKSWA,1.2 ± 0.37
9,FLQFF,-0.656 ± 0.47
10,NLVFSMPAVWALVYVFTLFI,1.51 ± 0.37
11,YVNRVPLLEVLCP,-0.118 ± 1
12,MVWSQVQLRIGVMVM,-0.562 ± 0.4
13,LLWRVSPSTLTSAIFKCLHS,-0.741 ± 0.86
14,ILRQIDIDATYVIFLEMSRL,5.854 ± 0.047
15,NLVAAYRY,0.146 ± 0.45
16,VRLMSTAMLRRLELVLYST,0.539 ± 0.32
17,VNWRGNSRVGIRNRFFCHSH,-0.28 ± 0.72
18,TNDEGPVRLNFNISR,-0.389 ± 0.26
19,MLLSFLYLV,5.26 ± 0.049
20,CRCAPYSNGKTGIHARLFNT,0.794 ± 1.1
21,KYSLNM,-0.872 ± 1.4
22,ICACIMELCSLLHGIRGM,-0.378 ± 1.4
23,WVLPEAHVYGRWVT,1.06 ± 0.52
24,STDMYVPVPDTDWIICLRQL,-0.23 ± 0.56
25,VYLSYVFMYS,-0.445 ± 0.36

row,Substance,amyloid nucleation score
1,RAMDYFALEIQLVPRRLVQL,0.18 ± 0.41
2,MFHSYVSLGLCKW,0.371 ± 0.84
3,DNNLGLSWLSILAGFGH,-1.23 ± 0.91
4,SLLSFCQSSRVTESSMAYCT,inactive
5,NSAPDP,-0.948 ± 2.4
6,LVLFVTFGWCIDELRWMKRR,-0.51 ± 2.1
7,RWCLVSGMILCSLLCVYSFN,-1.62 ± 2.4
8,EVIVYKTFEDVSQRVRHNWN,1.89 ± 0.22
9,LRGEDNLLWCVISMTL,inactive
10,YCKLDVAVFCVQYNMSMSEQ,5.46 ± 0.079
11,AFLRVIDQQLRLEIHIIMKL,inactive
12,LAWMWYQGVSLRNKGGGMFY,-0.659 ± 1
13,VRHSAIRGLHWSGRILRCGV,1.01 ± 1.1
14,YCQSSWMSSFSTEFHKARLN,0.43 ± 0.39
15,FYIVFFTCLASSS,1.94 ± 0.29
16,ITMSYMSAKCVNWVVWACRL,0.286 ± 0.31
17,RHMRFPWLKAHVIFIMQWQR,1.16 ± 0.54
18,TTWVVFFEPGAV,-0.297 ± 0.84
19,VLCSCAMGYMFFFRAMMFR,-0.038 ± 0.38
20,PVNLGSDVYYNVRSQCGSMY,-0.218 ± 0.23
21,LIFLKLSSIRYFLMGHY,1.43 ± 0.25
22,LRSSWRTSIWHTWLWPYGDW,0.287 ± 0.87
23,LFSWVCIFECLPFKNWSQTV,inactive
24,HRPYLCGISYGGSRCELYTA,0.839 ± 0.75
25,ERTMGLSVMWAIECCLRNPG,2.05 ± 0.24

row,Substance,amyloid nucleation score
1,GVACTARCMCKFNRHPGVCE,-0.274 ± 1.1
2,IGIGWATSLCLDRDLFVTSG,0.029 ± 1.2
3,FRLSWHSYNSMWINTVTSPQ,2.75 ± 0.078
4,RCLGVCYTLDVFRSRMLDKL,-0.097 ± 0.44
5,VWRLSI,-0.557 ± 0.41
6,CEAMVLKGCAEAVQYRATDS,-0.23 ± 1.1
7,GRTLVLDFTHHPPILRVPLR,0 ± 0.48
8,DGLTLFLSRNGDYYSFTKIT,0.197 ± 0.46
9,SLKMEDFKKNSKMRMDFINH,1.85 ± 0.19
10,KMKSEDT,1.07 ± 0.25
11,RLVESRLCASCVDGG,-0.166 ± 0.46
12,FFDYGDAWSFHRMNNWDVLY,-0.935 ± 0.62
13,FMLYTTVTERAWRHLN,0.395 ± 0.36
14,DNWSMDVLFLWMASLGNKYR,inactive
15,LEYYLVWYNVYL,0.534 ± 0.19
16,HFNFNFAQSRNEMLVASG,-1.16 ± 1.6
17,NCIPALHEYVCMRR,0.282 ± 0.54
18,VVVVMRR,1.94 ± 0.23
19,NYSYVTWNLFGQSPICSLWY,6.103 ± 0.049
20,CSLSETFPKVYFMWTQRSYV,-1.36 ± 2.4
21,YIDIVGSSW,4.83 ± 0.07
22,CFQVYICVVDSDYRNFLWDA,3.73 ± 0.077
23,TRWWGPLQFVYFPD,-0.17 ± 0.68
24,VKCVKVLMLHSWF,1.53 ± 0.38
25,FKEDITFADGISDWSCQYTM,inactive

row,Substance,amyloid nucleation score
1,SYGNVLVGHGV,-0.044 ± 0.61
2,DWMFCTYCVTVFESQNVAVH,0.272 ± 0.27
3,KLVVKWRGFLEDGDRTLWLV,3.49 ± 0.13
4,CVSHFIHCDWLGQRL,0.135 ± 0.26
5,GVGEIVSNRFAIS,-0.409 ± 1
6,NSIDFVFDDGVLIRFVIKVS,inactive
7,TVRCG,0.014 ± 0.97
8,VSVNRVFFVSWAISKTIS,-0.689 ± 0.55
9,TFGINRYNFRISARIGQVCI,-0.284 ± 0.22
10,PDCRSYLTIF,0.486 ± 0.31
11,FNYEGYNMSCCGYRQFMEFG,5.87 ± 0.073
12,FGICKYFNRFVMNIRSVDES,-0.618 ± 0.52
13,VIMQFFILCPHSVCISSENH,7.497 ± 0.049
14,WLLVQLYYVCYFGLRLEFSM,-0.237 ± 0.18
15,FDFYSLRRGGVNYRSLLQVI,0.25 ± 0.84
16,GGRLEKRTCASCTSGQVVGV,0.294 ± 0.42
17,YCVSFLRSSLP,3.39 ± 0.12
18,WWIGNSTRYCVGMVWSI,inactive
19,HLLSGMITCDDLHGCGLEGI,0.344 ± 0.35
20,RCMNWVKCDRNPCVMLSIGT,inactive
21,HGMWNGFTILM,3.26 ± 0.11
22,RGCVGRSFSDEES,-1.22 ± 1.5
23,LFTIMMQPMGCHPCRPLASQ,0.082 ± 0.52
24,RTLPSG,-0.12 ± 0.19
25,QLTVYMFFCYC,5.378 ± 0.044

row,Substance,amyloid nucleation score
1,VVPPRTDSE,-0.364 ± 0.46
2,YVLLGFNYKTFYMSVGLDRE,-0.005 ± 0.52
3,NLLLYVYKKLCFGFVKECII,-0.953 ± 0.57
4,FSSICSRMEEGMTE,0.001 ± 0.34
5,PDGPANSSKDGDFCDKLR,1.4 ± 0.6
6,NEDLNS,0.194 ± 0.31
7,IEDAALRSKEPGFVQHNYSS,4.17 ± 0.077
8,GKSWFGYCVSLVCMSWVLSD,0.67 ± 1.2
9,KGDNVEIMQTFDKSCLDIGA,inactive
10,WISHSVSLFVSVLGMWMSRD,-2.09 ± 2.4
11,GLMNLVSDRMSWLNEV,0.485 ± 0.84
12,WRYRRCSYY,0.781 ± 0.47
13,DSVVCRKYDVIGKCQRRGTC,0.716 ± 0.61
14,LHRRNSCSIYRLLGFCLLPI,1.25 ± 0.6
15,RHRVQTTPSSMSFV,-0.388 ± 0.96
16,SNIQDCYRFEGLHKKTNENL,-0.684 ± 0.91
17,LYMVWCACSFWDYITVFIFM,0.041 ± 0.65
18,SLPSNHTVLWTVWMMVFGAR,-1.09 ± 0.96
19,TYRTWLYLPLQCAIYLGVSL,-0.436 ± 0.64
20,LCKIKESNDLFSARSIVAHQ,1.06 ± 0.59
21,FSISKLFGLNADTVHTRHKK,0.073 ± 0.38
22,RSSILMVVVANHSIIVTRGV,3.04 ± 0.13
23,AERPSLYWLKLRKRRITVV,0.46 ± 1.2
24,LVHSFMW,0.876 ± 0.51
25,MSFSPLLFVLATFCFGLWCW,-0.402 ± 0.78

row,Substance,amyloid nucleation score
1,GQIGACVPLIGVAMGYLS,-0.418 ± 1.5
2,STPNRLGPMPSWVGSTEAVV,-0.474 ± 1.1
3,MMGWV,-0.619 ± 0.48
4,CYKVFPVVSYKVGGASLTAR,0.105 ± 0.31
5,FDRFCFIIIVQYSFHG,1.35 ± 0.76
6,LFVSNMC,-1.47 ± 0.91
7,FSSRWSI,-0.138 ± 0.6
8,THNWNNSYSWSPPDALVSCK,0.263 ± 0.51
9,LSRSYYNQFLTDFKGSGTYM,-0.269 ± 0.64
10,CLLTNTKFWYISMSHDLGCL,0.559 ± 0.34
11,GNLFITACFHAFVIWFHNGN,inactive
12,HLVKHVLCSKCTFDVLIIIY,1.08 ± 0.21
13,DERNACLSSFGVNLRLIKLS,-0.002 ± 0.4
14,CSVFWCFVLGLVNRNLLKRS,-0.928 ± 0.4
15,ILAIKWTSVWCMESDFPIEV,-0.402 ± 0.58
16,LPPARIFEGRSICYFVWYLP,0.232 ± 0.7
17,RAHVLLLFMNCRRCKQTMIR,-0.88 ± 1.1
18,FEFDNR,-0.003 ± 0.53
19,NVTIVGS,1.02 ± 0.46
20,PCLVSCHPGADAYLYDNLEV,-0.856 ± 2.4
21,AFRIFPHL,inactive
